From paper PMC9855357, “Different Forms of Disorder in NMDA-Sensitive Glutamate Receptor Cytoplasmic Domains Are Associated with Differences in Condensate Formation” (Biomolecules, 2022)

Biological target: T1, Full-length PSD-95 (post synaptic density protein of 95 kDa) (Rattus norvegicus, UniProt P31016 1-724)
T1 construct: PSD-95, Rattus norvegicus, full length
Experiment: co-sedimentation; ternary mixture 1:1:1 of PSD-95, CC-PBM and CTD2A or CTD2B, 20 µM each, 20 mM tris-HCl, 150 mM NaCl, pH 7.4, 25 °C for 5 min, 13,200 x g for 1 min; supernatant and pellet on SDS-PAGE, Coomassie
Settings: both partners purified

T1 sequence (P31016 whole entry): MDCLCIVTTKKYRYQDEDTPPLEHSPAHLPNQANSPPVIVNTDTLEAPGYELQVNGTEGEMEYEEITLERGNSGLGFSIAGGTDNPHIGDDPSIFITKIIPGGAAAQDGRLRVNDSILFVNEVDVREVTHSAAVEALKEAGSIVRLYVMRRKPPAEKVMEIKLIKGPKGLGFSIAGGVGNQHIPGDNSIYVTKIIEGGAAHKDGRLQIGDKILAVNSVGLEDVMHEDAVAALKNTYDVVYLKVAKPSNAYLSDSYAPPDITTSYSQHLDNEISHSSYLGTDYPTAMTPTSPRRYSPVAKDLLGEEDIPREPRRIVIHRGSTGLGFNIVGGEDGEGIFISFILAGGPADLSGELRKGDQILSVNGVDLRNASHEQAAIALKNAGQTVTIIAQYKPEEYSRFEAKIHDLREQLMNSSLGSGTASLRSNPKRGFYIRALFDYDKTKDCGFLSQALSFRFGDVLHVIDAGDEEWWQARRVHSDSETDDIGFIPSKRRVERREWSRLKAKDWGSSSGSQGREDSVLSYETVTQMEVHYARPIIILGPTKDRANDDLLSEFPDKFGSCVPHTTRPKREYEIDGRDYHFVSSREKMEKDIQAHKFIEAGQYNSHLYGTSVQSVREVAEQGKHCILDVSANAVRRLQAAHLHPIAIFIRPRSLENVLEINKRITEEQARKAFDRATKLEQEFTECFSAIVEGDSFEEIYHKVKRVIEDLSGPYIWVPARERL

binding result: binds
B1: C-terminal domain 2 (CTD2) of GluN2B (residues 1259–1482) (domain or fragment, Rattus norvegicus, UniProt Q00960 1259-1482, looked up)
chain: SLQELDQPAAPVAVTSNASSTKYPQSPTNSKAQKKNRNKLRRQHSYDTFVDLQKEEAALAPRSVSLKDKGRFMDGSPYAHMFEMPAGESSFANKSSVPTAGHHHNNPGSGYMLSKSLYPDRVTQNPFIPTFGDDQCLLHGSKSYFFRQPTVAGASKTRPDFRALVTNKPVVVTLHGAVPGRFQKDICIGNQSNPCVPNNKNPRAFNGSSNGHVYEKLSSIESDV
notes: GluN2B subunit of the NMDA receptor, Rattus norvegicus, C-terminal domain 2, residues 1259-1482; Expressed from pPROEX HTB; the His tag was removed with TEV protease; also called CTD2B; GluN2B CTD2; not shown: His6, N-terminal, cleaved
